The numbers were not newly measured in publication PMC4517114, which cites them from elsewhere.

Read-outs that look alike come from different tables or passages of the source.

A word on the Kd: it is the equilibrium constant for the complex coming apart.

The target in data set [1] is MAGI-1 PDZ (Homo sapiens) (UniProt Q96QZ7).
Data set [2] has the same target. This is another data set of the same source.

Sequence of UniProt Q96QZ7 (Q96QZ7 472-554): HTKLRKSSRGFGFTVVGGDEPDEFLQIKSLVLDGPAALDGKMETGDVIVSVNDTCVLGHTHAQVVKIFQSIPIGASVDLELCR

For the substance HPV16 E6 (from UniProt P03126), in data set [1], the Kd is 3000 nM. Turning to HPV18 E6 (from UniProt P06463), in data set [2], the Kd is 1500 nM.
